According to patent publication US20200317768A1 (published 2020):
Residue numbers refer to the chain shown, from its start. Names may count otherwise.

T1: human FcγRIIb extracellular domain, His-tagged (human, UniProt P31994 43-217)
T1 construct: also called FcgRIIb (human)
T1 sequence: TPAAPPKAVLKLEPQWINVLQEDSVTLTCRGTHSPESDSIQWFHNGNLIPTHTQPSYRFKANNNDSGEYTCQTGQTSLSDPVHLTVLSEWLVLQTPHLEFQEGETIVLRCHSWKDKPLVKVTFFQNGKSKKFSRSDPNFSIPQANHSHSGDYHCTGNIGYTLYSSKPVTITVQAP

T2: cynomolgus monkey FcγRIIb extracellular domain, His-tagged (cynomolgus monkey)
T2 construct: also called cyno FcγRIIb; cynoFcγRIIb
T2 chain: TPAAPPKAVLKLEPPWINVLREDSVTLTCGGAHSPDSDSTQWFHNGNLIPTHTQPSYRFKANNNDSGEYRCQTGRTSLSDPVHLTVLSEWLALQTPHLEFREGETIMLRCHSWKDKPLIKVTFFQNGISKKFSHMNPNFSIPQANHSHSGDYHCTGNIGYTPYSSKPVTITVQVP

T3: human FcγRIIaH extracellular domain, His-tagged (human, UniProt P12318 34-217)
T3 construct: also called human FcγRIIa (type H); FcgRIIaH
T3 sequence: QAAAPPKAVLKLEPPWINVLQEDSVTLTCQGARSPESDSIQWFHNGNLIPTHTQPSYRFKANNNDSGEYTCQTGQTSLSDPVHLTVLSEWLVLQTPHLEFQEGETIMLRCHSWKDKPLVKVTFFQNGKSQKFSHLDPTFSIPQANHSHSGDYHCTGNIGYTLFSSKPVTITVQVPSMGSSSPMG

T4: human FcγRIIaR extracellular domain, His-tagged (human, UniProt P12318 34-217)
T4 construct: also called human FcγRIIa (type R); FcgRIIaR
T4 chain: T3 sequence with H134R

T5: cynomolgus monkey FcγRIIa2 extracellular domain, His-tagged (cynomolgus monkey)
T5 construct: also called cyno FcγRIIa2; cynoFcgRIIa2
T5 chain: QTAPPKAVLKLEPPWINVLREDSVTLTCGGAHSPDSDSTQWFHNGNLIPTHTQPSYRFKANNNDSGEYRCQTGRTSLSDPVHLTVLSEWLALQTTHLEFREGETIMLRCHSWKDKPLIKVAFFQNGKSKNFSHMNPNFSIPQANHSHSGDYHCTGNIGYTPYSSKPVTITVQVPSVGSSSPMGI

T6: cynomolgus monkey FcγRIIa1 extracellular domain, His-tagged (cynomolgus monkey)
T6 construct: also called cyno FcγRIIa1; cynoFcgRIIa1
T6 chain: T5 chain with T95P, A121T, K127I, S128A, N130K, N135D, Q142R

T7: cynomolgus monkey FcγRIIa3 extracellular domain, His-tagged (cynomolgus monkey)
T7 construct: also called cyno FcγRIIa3; cynoFcgRIIa3
T7 chain: T5 chain with K127I, N130K, H133P, Q142R

T8: cynomolgus monkey FcγRIIIaS extracellular domain, His-tagged (cynomolgus monkey, UniProt Q8SPW2 21-206 at identity 1.00))
T8 construct: also called cyno FcγRIIIaS; cynoFcγRIIIaS
T8 chain: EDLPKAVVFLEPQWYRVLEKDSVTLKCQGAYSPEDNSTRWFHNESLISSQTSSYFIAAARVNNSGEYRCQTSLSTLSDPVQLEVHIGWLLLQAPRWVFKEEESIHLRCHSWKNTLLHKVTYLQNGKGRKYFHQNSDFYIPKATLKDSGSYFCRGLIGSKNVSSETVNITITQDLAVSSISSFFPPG

B1: MS_M103205H795-SG1/M103202L889-SK1 (antibody, human IgG1, kappa)
heavy: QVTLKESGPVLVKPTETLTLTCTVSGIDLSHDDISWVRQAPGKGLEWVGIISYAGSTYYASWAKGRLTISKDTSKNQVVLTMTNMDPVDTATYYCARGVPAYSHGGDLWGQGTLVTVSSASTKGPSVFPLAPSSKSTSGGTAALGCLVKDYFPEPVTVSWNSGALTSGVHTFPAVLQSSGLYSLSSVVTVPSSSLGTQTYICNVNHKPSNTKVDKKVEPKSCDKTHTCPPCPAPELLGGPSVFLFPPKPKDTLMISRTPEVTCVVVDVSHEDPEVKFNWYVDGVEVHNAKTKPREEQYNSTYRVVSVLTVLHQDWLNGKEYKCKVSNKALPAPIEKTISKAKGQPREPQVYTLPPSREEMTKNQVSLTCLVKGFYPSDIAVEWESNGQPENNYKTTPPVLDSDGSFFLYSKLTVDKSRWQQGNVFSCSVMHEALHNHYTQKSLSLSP
light: DIVMTQSPATLSLSPGERATLSCTSSQSVYHANWLSWFQQKPGQPPKLLIYWASTLAYGVPSRFSGSGSGTDFTLTISSLQPEDAATYYCAGGYGGGRYAFGQGTKVEIKRTVAAPSVFIFPPSDEQLKSGTASVVCLLNNFYPREAKVQWKVDNALQSGNSQESVTEQDSKDSTYSLSSTLTLSKADYEKHKVYACEVTHQGLSSPVTKSFNRGEC
notes: Parent antibody of the Fc variants; heavy chain constant region SG1, light chain M103202L889-SK1; also called MS1032LO06-SG1
B2: M103205H795-MY008/M103202L889-SK1 (antibody, human IgG1, kappa)
heavy: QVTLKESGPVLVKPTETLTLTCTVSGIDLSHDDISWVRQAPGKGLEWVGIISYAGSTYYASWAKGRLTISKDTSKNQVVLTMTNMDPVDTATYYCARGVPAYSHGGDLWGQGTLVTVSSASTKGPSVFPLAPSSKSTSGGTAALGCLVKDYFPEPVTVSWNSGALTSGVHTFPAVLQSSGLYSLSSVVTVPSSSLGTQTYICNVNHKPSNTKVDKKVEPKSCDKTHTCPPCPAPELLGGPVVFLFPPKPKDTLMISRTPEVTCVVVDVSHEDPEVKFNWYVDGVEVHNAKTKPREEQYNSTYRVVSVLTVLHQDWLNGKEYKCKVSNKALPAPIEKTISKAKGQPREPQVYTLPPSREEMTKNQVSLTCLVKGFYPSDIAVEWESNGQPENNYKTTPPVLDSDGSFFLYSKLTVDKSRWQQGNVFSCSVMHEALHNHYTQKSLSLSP
light: B1 light
notes: Substitution put into M103205H795-SG1
B3: M103205H795-MY016/M103202L889-SK1 (antibody, human IgG1, kappa)
heavy: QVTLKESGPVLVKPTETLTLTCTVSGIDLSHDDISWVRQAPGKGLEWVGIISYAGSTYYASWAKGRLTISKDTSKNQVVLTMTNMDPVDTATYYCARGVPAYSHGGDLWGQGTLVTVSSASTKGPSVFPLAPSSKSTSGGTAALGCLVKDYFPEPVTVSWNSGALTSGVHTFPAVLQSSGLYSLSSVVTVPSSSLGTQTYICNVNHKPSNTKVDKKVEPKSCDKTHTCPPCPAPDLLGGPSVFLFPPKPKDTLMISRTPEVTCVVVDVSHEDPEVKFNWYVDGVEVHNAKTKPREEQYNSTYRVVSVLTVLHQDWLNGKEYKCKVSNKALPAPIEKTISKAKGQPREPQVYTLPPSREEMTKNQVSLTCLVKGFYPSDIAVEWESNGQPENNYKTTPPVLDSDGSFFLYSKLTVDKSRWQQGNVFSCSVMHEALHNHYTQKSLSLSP
light: B1 light
notes: as for B2
B4: M103205H795-MY044/M103202L889-SK1 (antibody, human IgG1, kappa)
heavy: not shown
light: B1 light
notes: as for B2
B5: M103205H795-MY037/M103202L889-SK1 (antibody, human IgG1, kappa)
heavy: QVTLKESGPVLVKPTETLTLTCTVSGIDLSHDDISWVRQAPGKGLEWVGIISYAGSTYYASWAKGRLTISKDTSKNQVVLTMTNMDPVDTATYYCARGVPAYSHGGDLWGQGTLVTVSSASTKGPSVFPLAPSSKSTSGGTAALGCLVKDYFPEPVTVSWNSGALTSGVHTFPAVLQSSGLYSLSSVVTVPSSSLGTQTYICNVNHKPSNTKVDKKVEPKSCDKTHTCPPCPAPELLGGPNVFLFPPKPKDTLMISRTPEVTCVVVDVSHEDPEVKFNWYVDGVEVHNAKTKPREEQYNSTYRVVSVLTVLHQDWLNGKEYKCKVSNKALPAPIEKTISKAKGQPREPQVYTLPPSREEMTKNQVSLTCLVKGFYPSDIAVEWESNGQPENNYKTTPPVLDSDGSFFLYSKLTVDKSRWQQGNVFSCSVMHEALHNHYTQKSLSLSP
light: B1 light
notes: as for B2
B6: M103205H795-MY064/M103202L889-SK1 (antibody, human IgG1, kappa)
heavy: not shown
light: B1 light
notes: as for B2
B7: M103205H795-MY006/M103202L889-SK1 (antibody, human IgG1, kappa)
heavy: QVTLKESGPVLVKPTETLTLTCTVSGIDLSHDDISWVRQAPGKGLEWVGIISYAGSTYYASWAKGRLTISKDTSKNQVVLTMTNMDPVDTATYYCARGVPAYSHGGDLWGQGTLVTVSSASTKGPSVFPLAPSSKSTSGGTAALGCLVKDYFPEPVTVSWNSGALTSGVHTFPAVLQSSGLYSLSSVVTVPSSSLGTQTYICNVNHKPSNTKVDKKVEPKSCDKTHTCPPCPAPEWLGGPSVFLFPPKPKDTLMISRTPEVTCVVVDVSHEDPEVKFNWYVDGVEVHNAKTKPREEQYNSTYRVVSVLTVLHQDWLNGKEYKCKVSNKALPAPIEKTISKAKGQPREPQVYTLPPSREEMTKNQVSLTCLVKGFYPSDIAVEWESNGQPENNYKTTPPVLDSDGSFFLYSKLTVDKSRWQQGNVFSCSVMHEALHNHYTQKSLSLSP
light: B1 light
notes: as for B2
B8: M103205H795-MY038/M103202L889-SK1 (antibody, human IgG1, kappa)
heavy: not shown
light: B1 light
notes: as for B2
B9: M103205H795-MY045/M103202L889-SK1 (antibody, human IgG1, kappa)
heavy: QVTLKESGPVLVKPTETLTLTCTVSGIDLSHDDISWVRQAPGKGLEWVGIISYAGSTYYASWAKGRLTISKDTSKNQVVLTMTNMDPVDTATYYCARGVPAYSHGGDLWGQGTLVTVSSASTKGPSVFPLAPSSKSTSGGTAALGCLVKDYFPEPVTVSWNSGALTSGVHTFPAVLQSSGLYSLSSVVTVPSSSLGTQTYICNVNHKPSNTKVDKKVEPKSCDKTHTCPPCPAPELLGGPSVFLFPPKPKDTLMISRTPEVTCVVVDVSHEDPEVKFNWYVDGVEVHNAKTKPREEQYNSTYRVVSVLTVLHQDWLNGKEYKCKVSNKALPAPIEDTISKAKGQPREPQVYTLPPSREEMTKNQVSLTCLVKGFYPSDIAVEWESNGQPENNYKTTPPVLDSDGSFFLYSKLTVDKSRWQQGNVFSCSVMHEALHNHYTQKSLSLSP
light: B1 light
notes: as for B2
B10: M103205H795-MY041/M103202L889-SK1 (antibody, human IgG1, kappa)
heavy: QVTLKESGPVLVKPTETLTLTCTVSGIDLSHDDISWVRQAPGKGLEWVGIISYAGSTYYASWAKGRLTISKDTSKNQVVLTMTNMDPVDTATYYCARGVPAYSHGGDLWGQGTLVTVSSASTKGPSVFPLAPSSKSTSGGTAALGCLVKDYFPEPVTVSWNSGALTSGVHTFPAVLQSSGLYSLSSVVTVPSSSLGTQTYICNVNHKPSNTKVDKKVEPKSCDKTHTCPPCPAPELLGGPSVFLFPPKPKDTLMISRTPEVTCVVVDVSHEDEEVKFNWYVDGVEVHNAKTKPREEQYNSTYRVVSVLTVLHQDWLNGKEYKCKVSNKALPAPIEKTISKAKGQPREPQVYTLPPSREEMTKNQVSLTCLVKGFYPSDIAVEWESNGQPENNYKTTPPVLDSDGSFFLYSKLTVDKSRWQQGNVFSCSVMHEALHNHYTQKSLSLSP
light: B1 light
notes: as for B2
B11: M103205H795-MY013/M103202L889-SK1 (antibody, human IgG1, kappa)
heavy: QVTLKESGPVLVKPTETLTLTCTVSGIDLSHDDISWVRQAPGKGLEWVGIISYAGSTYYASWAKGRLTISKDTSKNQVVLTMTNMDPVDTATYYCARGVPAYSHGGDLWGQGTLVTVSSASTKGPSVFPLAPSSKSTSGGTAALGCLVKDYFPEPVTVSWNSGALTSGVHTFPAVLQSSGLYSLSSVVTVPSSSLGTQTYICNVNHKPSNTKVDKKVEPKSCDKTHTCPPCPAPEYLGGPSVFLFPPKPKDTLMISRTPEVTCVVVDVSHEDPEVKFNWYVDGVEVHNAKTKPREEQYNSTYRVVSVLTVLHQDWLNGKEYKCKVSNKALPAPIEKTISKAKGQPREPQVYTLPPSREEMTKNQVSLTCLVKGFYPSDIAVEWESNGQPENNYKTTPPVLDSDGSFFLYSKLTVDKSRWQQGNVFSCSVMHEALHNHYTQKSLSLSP
light: B1 light
notes: as for B2
B12: M103205H795-MY010/M103202L889-SK1 (antibody, human IgG1, kappa)
heavy: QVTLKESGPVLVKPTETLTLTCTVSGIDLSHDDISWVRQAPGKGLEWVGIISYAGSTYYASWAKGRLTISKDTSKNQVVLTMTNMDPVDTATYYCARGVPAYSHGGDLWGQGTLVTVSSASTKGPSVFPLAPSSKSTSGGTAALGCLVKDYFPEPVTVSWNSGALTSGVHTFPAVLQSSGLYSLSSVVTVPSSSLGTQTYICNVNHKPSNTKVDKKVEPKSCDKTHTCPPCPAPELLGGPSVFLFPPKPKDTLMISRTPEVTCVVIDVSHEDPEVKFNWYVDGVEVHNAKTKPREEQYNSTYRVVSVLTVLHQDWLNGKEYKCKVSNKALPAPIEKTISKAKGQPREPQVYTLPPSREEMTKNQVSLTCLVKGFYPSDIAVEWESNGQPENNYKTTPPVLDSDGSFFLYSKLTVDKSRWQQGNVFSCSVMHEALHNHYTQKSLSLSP
light: B1 light
notes: as for B2
B13: M103205H795-MY048/M103202L889-SK1 (P271D) (antibody, human IgG1, kappa)
heavy: not shown
light: B1 light
notes: Here the P271D molecule is meant; Put into M103205H795-SG1
B14: M103205H795-MY014/M103202L889-SK1 (antibody, human IgG1, kappa)
heavy: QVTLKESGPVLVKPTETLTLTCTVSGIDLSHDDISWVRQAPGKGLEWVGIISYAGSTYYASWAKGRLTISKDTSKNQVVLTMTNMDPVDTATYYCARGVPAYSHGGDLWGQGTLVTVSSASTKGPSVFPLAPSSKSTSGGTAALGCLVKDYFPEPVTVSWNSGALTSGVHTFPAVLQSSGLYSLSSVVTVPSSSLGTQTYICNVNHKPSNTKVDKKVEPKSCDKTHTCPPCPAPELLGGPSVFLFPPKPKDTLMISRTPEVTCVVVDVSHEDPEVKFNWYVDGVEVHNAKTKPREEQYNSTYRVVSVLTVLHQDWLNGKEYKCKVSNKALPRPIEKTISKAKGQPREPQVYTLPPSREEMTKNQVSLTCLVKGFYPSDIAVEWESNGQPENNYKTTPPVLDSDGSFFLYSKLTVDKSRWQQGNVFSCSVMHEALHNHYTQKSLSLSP
light: B1 light
notes: as for B2
B15: M103205H795-MY063/M103202L889-SK1 (antibody, human IgG1, kappa)
heavy: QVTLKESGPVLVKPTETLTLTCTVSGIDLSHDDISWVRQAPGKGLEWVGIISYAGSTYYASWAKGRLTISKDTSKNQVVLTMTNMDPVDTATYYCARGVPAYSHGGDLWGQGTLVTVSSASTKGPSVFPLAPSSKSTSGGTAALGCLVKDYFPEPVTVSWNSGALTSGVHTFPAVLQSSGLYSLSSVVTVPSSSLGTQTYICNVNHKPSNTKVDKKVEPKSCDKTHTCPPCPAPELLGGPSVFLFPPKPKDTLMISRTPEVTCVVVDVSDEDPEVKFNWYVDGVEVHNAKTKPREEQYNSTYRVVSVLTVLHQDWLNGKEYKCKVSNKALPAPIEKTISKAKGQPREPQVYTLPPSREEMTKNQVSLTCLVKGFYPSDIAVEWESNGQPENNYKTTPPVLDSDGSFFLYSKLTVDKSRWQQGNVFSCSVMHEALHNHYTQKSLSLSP
light: B1 light
notes: as for B2
B16: M103205H795-MY043/M103202L889-SK1 (antibody, human IgG1, kappa)
heavy: not shown
light: B1 light
notes: as for B2

The binders below were run against T1, human FcγRIIb extracellular domain, … (assay: SPR; KD of SG1 / KD of variant;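 also: relative to parent M103205H795-SG1 carrying the SG1 human heavy chain constant region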).

KD fold (SG1 = 1) [fold] | Binder
1 | B1
1.8 | B2
1.6 | B3
1.4 | B4
1.8 | B5
1.9 | B6
2 | B7
1.8 | B8
1.6 | B9
1.6 | B10
1.2 | B11
0.9 | B12
1.5 | B13
1 | B14
7 | B15
1.5 | B16

Biological target: T2, cynomolgus monkey FcγRIIb extracellular …
Assay: SPR; KD of SG1 / KD of variant;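 also: relative to parent M103205H795-SG1 carrying the SG1 human heavy chain constant region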

KD fold (SG1 = 1) [fold] | Binder
1 | B1
1.1 | B2
1.1 | B3
1.1 | B4
0.8 | B5
1.6 | B6
2 | B7
0.9 | B8
0.8 | B9
0.5 | B10
0.9 | B11
0.5 | B12
0.5 | B13
1.2 | B14
5.3 | B15
0.4 | B16

The binders below were run against T3, human FcγRIIaH extracellular domain, … (assay: SPR; KD of SG1 / KD of variant;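 also: relative to parent M103205H795-SG1 carrying the SG1 human heavy chain constant region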).

KD fold (SG1 = 1) [fold] | Binder
1 | B1
0.4 | B2
0.8 | B3
0.6 | B4
0.6 | B5
1.4 | B6
0.5 | B7
0.6 | B8
0.4 | B9
0.4 | B10
0.3 | B11
0.6 | B12
0.4 | B13
1.3 | B14
2.6 | B15
0.2 | B16

Biological target: T4, human FcγRIIaR extracellular domain, …
Assay: SPR; KD of SG1 / KD of variant;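 also: relative to parent M103205H795-SG1 carrying the SG1 human heavy chain constant region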

KD fold (SG1 = 1) [fold] | Binder
1 | B1
0.6 | B2
1.2 | B3
1.2 | B4
1.2 | B5
1.6 | B6
0.6 | B7
0.7 | B8
0.7 | B9
0.9 | B10
0.2 | B11
0.6 | B12
0.5 | B13
1.1 | B14
5.2 | B15
0.7 | B16

What follows are binders tested against T9, human FcγRIIIaV extracellular domain, His-tagged (human, UniProt P08637 17-208) (assay: SPR; KD of SG1 / KD of variant).
T9 construct: also called FcgRIIIaV

KD fold (SG1 = 1) [fold] | Binder
1 | B1
1.29 | B2
2.15 | B3
0.9 | B4
2.15 | B5
3.68 | B6
1.12 | B7
1.47 | B8
3.38 | B9
1.69 | B10
1.98 | B11
3.68 | B12
1.33 | B13
1.17 | B14
5.06 | B15
0.68 | B16

Biological target: T5, cynomolgus monkey FcγRIIa2 …
Assay: SPR; KD of SG1 / KD of variant

KD fold (SG1 = 1) [fold] | Binder
1 | B1
1.4 | B2
1.5 | B3
1.5 | B4
1.1 | B5
2 | B6
2.7 | B7
1.1 | B8
1.3 | B9
1.2 | B10
1.1 | B11
1 | B12
0.5 | B13
2 | B14
3.4 | B15
0.1 | B16

Biological target: T6, cynomolgus monkey FcγRIIa1 …
Assay: SPR; KD of SG1 / KD of variant

KD fold (SG1 = 1) [fold] | Binder
1 | B1
0.8 | B2
1.1 | B3
1 | B4
0.8 | B5
1.3 | B6
1.6 | B7
0.8 | B8
0.6 | B9
0.8 | B10
0.7 | B11
0.5 | B12
0.6 | B13
1.3 | B14
2.3 | B15
0.6 | B16

Biological target: T7, cynomolgus monkey FcγRIIa3 …
Assay: SPR; KD of SG1 / KD of variant

KD fold (SG1 = 1) [fold] | Binder
1 | B1
0.7 | B2
5.3 | B3
0.3 | B4
1.5 | B5
2.5 | B6
4.7 | B7
1.5 | B8
2.5 | B9
2.3 | B10
0.3 | B11
1.2 | B12
3.5 | B13
1.4 | B14
8.5 | B15
0.9 | B16

Biological target: T8, cynomolgus monkey FcγRIIIaS …
Assay: SPR, antibody captured, FcgR analyte

Kd [nM] | Binder
360 | B1
370 | B2
230 | B3
470 | B4
200 | B5
120 | B6
320 | B7
310 | B8
140 | B9
260 | B10
330 | B11
220 | B12
370 | B13
400 | B14
67 | B15
840 | B16
